The values below come from patent US20140087995A1 (published 2014).

Numbered stars: 1 amine (or outer) side, 2 acyl side, 3 side chain; on linkers, the order of the positions; unused ones are H or OH. Bridge positions count the residues as written; N and C are the ends. Side chains are listed from the residue outwards. Ends that are not written are not given here. * marks the point of attachment. C20 diacid = O=C(O)CCCCCCCCCCCCCCCCCCC(=O)*; γGlu = O=C(O)[C@H](CCC(=O)[*:2])N[*:1]; AEEA = NCCOCCOCC(=O)O

The target of test [1] is T1, human amylin receptor (amylin 3(a) receptor: human calcitonin receptor plus RAMP-3) (human, UniProt P30988 25-474; O60896 24-148, limits assumed).
T1 sequence (looked up) 1: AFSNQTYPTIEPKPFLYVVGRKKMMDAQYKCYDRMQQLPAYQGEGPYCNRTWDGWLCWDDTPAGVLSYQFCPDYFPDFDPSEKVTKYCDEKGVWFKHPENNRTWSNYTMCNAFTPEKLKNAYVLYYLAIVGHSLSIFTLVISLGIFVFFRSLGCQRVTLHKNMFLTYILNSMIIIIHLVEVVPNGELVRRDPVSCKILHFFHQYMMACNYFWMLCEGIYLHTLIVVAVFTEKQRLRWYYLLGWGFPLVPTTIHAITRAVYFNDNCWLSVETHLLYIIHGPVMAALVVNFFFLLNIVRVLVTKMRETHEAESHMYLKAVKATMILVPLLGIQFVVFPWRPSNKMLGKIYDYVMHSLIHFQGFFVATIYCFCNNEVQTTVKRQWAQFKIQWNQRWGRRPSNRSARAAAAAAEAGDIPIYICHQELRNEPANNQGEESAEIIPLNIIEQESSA
T1 sequence (looked up) 2: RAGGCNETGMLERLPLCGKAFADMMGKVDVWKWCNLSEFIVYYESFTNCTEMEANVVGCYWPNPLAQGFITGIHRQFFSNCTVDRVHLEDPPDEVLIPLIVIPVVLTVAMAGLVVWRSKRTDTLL
The experiment in a line: cell-based or functional assay.

For test [2], the target named is T2, human calcitonin receptor (human, UniProt P30988 25-474).
T2 sequence (looked up): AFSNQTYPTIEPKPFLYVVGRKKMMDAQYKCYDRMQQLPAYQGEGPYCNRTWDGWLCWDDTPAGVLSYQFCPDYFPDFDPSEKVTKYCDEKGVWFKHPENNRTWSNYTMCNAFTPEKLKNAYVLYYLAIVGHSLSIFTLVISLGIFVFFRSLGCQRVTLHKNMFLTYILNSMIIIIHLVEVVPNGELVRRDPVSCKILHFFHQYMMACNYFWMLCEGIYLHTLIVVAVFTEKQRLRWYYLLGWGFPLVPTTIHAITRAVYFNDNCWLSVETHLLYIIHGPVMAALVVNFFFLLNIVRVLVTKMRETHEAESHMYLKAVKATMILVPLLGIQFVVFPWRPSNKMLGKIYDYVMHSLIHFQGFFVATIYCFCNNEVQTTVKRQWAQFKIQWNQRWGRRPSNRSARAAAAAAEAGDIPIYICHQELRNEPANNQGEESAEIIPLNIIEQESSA
The experiment in a line: cell-based or functional assay.

B1: N^α1-[(4S)-4-carboxy-4-(19-carboxynonadecanoylamino)butanoyl]-[Glu14,Arg17,Pro21,Pro25,Pro28,Pro29]-h-amylin (peptide)
peptide: {C20 diacid-γGlu}-KCNTATCATQRLAEFLRHSSPNFGPILPPTNVGSNTY-NH2
modifications: disulfide 2-7
SMILES: CC[C@H](C)[C@H](NC(=O)[C@@H]1CCCN1C(=O)CNC(=O)[C@H](Cc1ccccc1)NC(=O)[C@H](CC(N)=O)NC(=O)[C@@H]1CCCN1C(=O)[C@H](CO)NC(=O)[C@H](CO)NC(=O)[C@H](Cc1c[nH]cn1)NC(=O)[C@H](CCCNC(=N)N)NC(=O)[C@H](CC(C)C)NC(=O)[C@H](Cc1ccccc1)NC(=O)[C@H](CCC(=O)O)NC(=O)[C@H](C)NC(=O)[C@H](CC(C)C)NC(=O)[C@H](CCCNC(=N)N)NC(=O)[C@H](CCC(N)=O)NC(=O)[C@@H](NC(=O)[C@H](C)NC(=O)[C@@H]1CSSC[C@H](NC(=O)[C@H](CCCCN)NC(=O)CC[C@H](NC(=O)CCCCCCCCCCCCCCCCCCC(=O)O)C(=O)O)C(=O)N[C@@H](CC(N)=O)C(=O)N[C@@H]([C@@H](C)O)C(=O)N[C@@H](C)C(=O)N[C@@H]([C@@H](C)O)C(=O)N1)[C@@H](C)O)C(=O)N[C@@H](CC(C)C)C(=O)N1CCC[C@H]1C(=O)N1CCC[C@H]1C(=O)N[C@H](C(=O)N[C@@H](CC(N)=O)C(=O)N[C@H](C(=O)NCC(=O)N[C@@H](CO)C(=O)N[C@@H](CC(N)=O)C(=O)N[C@H](C(=O)N[C@@H](Cc1ccc(O)cc1)C(N)=O)[C@@H](C)O)C(C)C)[C@@H](C)O
notes: Synthetic acylated analogue of human amylin; also called compound 6
Take B1: in test [1], the “Ratio hCT/hAmylin funct.” value came out at 5.7 ratio and the “hAmylin-R funct. EC50” value stood at 0.128 nM. The “hCTR funct. EC50” value in test [2] is 0.729 nM.

B2: N^ε1-[2-[2-[2-[[(4S)-4-carboxy-4-(19-carboxynonadecanoylamino)butanoyl]amino]ethoxy]ethoxy]acetyl]-[Arg17,Pro21,Pro27]-h-amylin (peptide)
peptide: K([AEEA-γGlu-C20 diacid])CNTATCATQRLANFLRHSSPNFGAIPSSTNVGSNTY-NH2
modifications: disulfide 2-7; N-terminus assumed
SMILES: CC[C@H](C)[C@H](NC(=O)[C@H](C)NC(=O)CNC(=O)[C@H](Cc1ccccc1)NC(=O)[C@H](CC(N)=O)NC(=O)[C@@H]1CCCN1C(=O)[C@H](CO)NC(=O)[C@H](CO)NC(=O)[C@H](Cc1c[nH]cn1)NC(=O)[C@H](CCCNC(=N)N)NC(=O)[C@H](CC(C)C)NC(=O)[C@H](Cc1ccccc1)NC(=O)[C@H](CC(N)=O)NC(=O)[C@H](C)NC(=O)[C@H](CC(C)C)NC(=O)[C@H](CCCNC(=N)N)NC(=O)[C@H](CCC(N)=O)NC(=O)[C@@H](NC(=O)[C@H](C)NC(=O)[C@@H]1CSSC[C@H](NC(=O)[C@@H](N)CCCCNC(=O)COCCOCCNC(=O)CC[C@H](NC(=O)CCCCCCCCCCCCCCCCCCC(=O)O)C(=O)O)C(=O)N[C@@H](CC(N)=O)C(=O)N[C@@H]([C@@H](C)O)C(=O)N[C@@H](C)C(=O)N[C@@H]([C@@H](C)O)C(=O)N1)[C@@H](C)O)C(=O)N1CCC[C@H]1C(=O)N[C@@H](CO)C(=O)N[C@@H](CO)C(=O)N[C@H](C(=O)N[C@@H](CC(N)=O)C(=O)N[C@H](C(=O)NCC(=O)N[C@@H](CO)C(=O)N[C@@H](CC(N)=O)C(=O)N[C@H](C(=O)N[C@@H](Cc1ccc(O)cc1)C(N)=O)[C@@H](C)O)C(C)C)[C@@H](C)O
notes: Synthetic acylated analogue of human amylin; also called compound 41
With B2, in test [1], the “Ratio hCT/hAmylin funct.” value worked out at 16.7 ratio and the “hAmylin-R funct. EC50” value was 0.26 nM. The “hCTR funct. EC50” value in test [2] worked out at 4.35 nM.

B3: N^ε1-[(4S)-4-carboxy-4-[[(4S)-4-carboxy-4-(19-carboxynonadecanoylamino)butanoyl]amino]butanoyl]-[Asp14,Arg17,Pro21,Pro26,Asp35]-h-amylin (peptide)
peptide: K([γGlu-γGlu-C20 diacid])CNTATCATQRLADFLRHSSPNFGAPLSSTNVGSDTY-NH2
modifications: disulfide 2-7; N-terminus assumed
SMILES: CC(C)C[C@H](NC(=O)[C@H](CCCNC(=N)N)NC(=O)[C@H](CCC(N)=O)NC(=O)[C@@H](NC(=O)[C@H](C)NC(=O)[C@@H]1CSSC[C@H](NC(=O)[C@@H](N)CCCCNC(=O)CC[C@H](NC(=O)CC[C@H](NC(=O)CCCCCCCCCCCCCCCCCCC(=O)O)C(=O)O)C(=O)O)C(=O)N[C@@H](CC(N)=O)C(=O)N[C@@H]([C@@H](C)O)C(=O)N[C@@H](C)C(=O)N[C@@H]([C@@H](C)O)C(=O)N1)[C@@H](C)O)C(=O)N[C@@H](C)C(=O)N[C@@H](CC(=O)O)C(=O)N[C@@H](Cc1ccccc1)C(=O)N[C@@H](CC(C)C)C(=O)N[C@@H](CCCNC(=N)N)C(=O)N[C@@H](Cc1c[nH]cn1)C(=O)N[C@@H](CO)C(=O)N[C@@H](CO)C(=O)N1CCC[C@H]1C(=O)N[C@@H](CC(N)=O)C(=O)N[C@@H](Cc1ccccc1)C(=O)NCC(=O)N[C@@H](C)C(=O)N1CCC[C@H]1C(=O)N[C@@H](CC(C)C)C(=O)N[C@@H](CO)C(=O)N[C@@H](CO)C(=O)N[C@H](C(=O)N[C@@H](CC(N)=O)C(=O)N[C@H](C(=O)NCC(=O)N[C@@H](CO)C(=O)N[C@@H](CC(=O)O)C(=O)N[C@H](C(=O)N[C@@H](Cc1ccc(O)cc1)C(N)=O)[C@@H](C)O)C(C)C)[C@@H](C)O
notes: Synthetic acylated analogue of human amylin; also called compound 1
For the molecule B3, in test [1], the “Ratio hCT/hAmylin funct.” value turned out to be 12 ratio and the “hAmylin-R funct. EC50” value was determined as 0.224 nM. Further, in test [2], the “hCTR funct. EC50” value amounted to 2.7 nM.
